Where no end group is shown, it is not given here. [ ]: non-standard residue; d: D form. Aib = CC(C)(N)C(=O)O

The record followed here is patent publication US20180009871A1 (INTARCIA THERAPEUTICS, published 2018).

For test [1], the target named is human GLP-1 receptor (GLP-1R) (human, UniProt P43220 24-463). The test can be described thus: cell-based or functional assay.
Test [2] deals with human glucagon receptor (GCGR) (human, UniProt P47871 26-477). The experiment in a line: cell-based or functional assay.

Chain of human GLP-1 receptor (GLP-1R) (P43220 24-463): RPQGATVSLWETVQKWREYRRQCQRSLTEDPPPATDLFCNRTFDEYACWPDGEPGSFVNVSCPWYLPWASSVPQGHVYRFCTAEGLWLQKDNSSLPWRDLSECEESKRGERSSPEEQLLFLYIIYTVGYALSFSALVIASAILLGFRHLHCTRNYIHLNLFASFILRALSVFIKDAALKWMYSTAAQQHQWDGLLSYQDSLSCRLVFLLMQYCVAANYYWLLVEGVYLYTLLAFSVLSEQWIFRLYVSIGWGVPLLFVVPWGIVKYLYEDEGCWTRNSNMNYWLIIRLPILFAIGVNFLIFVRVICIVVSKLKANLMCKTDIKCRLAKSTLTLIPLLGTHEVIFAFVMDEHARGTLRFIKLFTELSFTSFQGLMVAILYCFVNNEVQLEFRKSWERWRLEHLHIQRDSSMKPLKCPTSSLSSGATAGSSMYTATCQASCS

B1: Compound A14 (peptide)
peptide: YSHGTFTSDYSKYLD[Aib]KRAQEFV[Aib]WLEDESSGAPPPS-OH
modifications: N-terminus assumed
SMILES: CC(C)C[C@H](NC(=O)[C@H](Cc1ccc(O)cc1)NC(=O)[C@H](CCCCN)NC(=O)[C@H](CO)NC(=O)[C@H](Cc1ccc(O)cc1)NC(=O)[C@H](CC(=O)O)NC(=O)[C@H](CO)NC(=O)[C@@H](NC(=O)[C@H](Cc1ccccc1)NC(=O)[C@@H](NC(=O)CNC(=O)[C@H](Cc1c[nH]cn1)NC(=O)[C@H](CO)NC(=O)[C@@H](N)Cc1ccc(O)cc1)[C@@H](C)O)[C@@H](C)O)C(=O)N[C@@H](CC(=O)O)C(=O)NC(C)(C)C(=O)N[C@@H](CCCCN)C(=O)N[C@@H](CCCNC(=N)N)C(=O)N[C@@H](C)C(=O)N[C@@H](CCC(N)=O)C(=O)N[C@@H](CCC(=O)O)C(=O)N[C@@H](Cc1ccccc1)C(=O)N[C@H](C(=O)NC(C)(C)C(=O)N[C@@H](Cc1c[nH]c2ccccc12)C(=O)N[C@@H](CC(C)C)C(=O)N[C@@H](CCC(=O)O)C(=O)N[C@@H](CC(=O)O)C(=O)N[C@@H](CCC(=O)O)C(=O)N[C@@H](CO)C(=O)N[C@@H](CO)C(=O)NCC(=O)N[C@@H](C)C(=O)N1CCC[C@H]1C(=O)N1CCC[C@H]1C(=O)N1CCC[C@H]1C(=O)N[C@@H](CO)C(=O)O)C(C)C
In the case of B1, the “hGLP1 pEC50 (cAMP)” value in test [1] was less than 9 pEC50. Also, in test [2], the “hGCGR pEC50 (cAMP)” value came out at 12 pEC50.

B2: Compound A12 (peptide)
peptide: YSHGTFTSDYSKYLD[Aib]KRAQEFV[Aib]WLEDEGAPPPS-OH
modifications: N-terminus assumed
SMILES: CC(C)C[C@H](NC(=O)[C@H](Cc1ccc(O)cc1)NC(=O)[C@H](CCCCN)NC(=O)[C@H](CO)NC(=O)[C@H](Cc1ccc(O)cc1)NC(=O)[C@H](CC(=O)O)NC(=O)[C@H](CO)NC(=O)[C@@H](NC(=O)[C@H](Cc1ccccc1)NC(=O)[C@@H](NC(=O)CNC(=O)[C@H](Cc1c[nH]cn1)NC(=O)[C@H](CO)NC(=O)[C@@H](N)Cc1ccc(O)cc1)[C@@H](C)O)[C@@H](C)O)C(=O)N[C@@H](CC(=O)O)C(=O)NC(C)(C)C(=O)N[C@@H](CCCCN)C(=O)N[C@@H](CCCNC(=N)N)C(=O)N[C@@H](C)C(=O)N[C@@H](CCC(N)=O)C(=O)N[C@@H](CCC(=O)O)C(=O)N[C@@H](Cc1ccccc1)C(=O)N[C@H](C(=O)NC(C)(C)C(=O)N[C@@H](Cc1c[nH]c2ccccc12)C(=O)N[C@@H](CC(C)C)C(=O)N[C@@H](CCC(=O)O)C(=O)N[C@@H](CC(=O)O)C(=O)N[C@@H](CCC(=O)O)C(=O)NCC(=O)N[C@@H](C)C(=O)N1CCC[C@H]1C(=O)N1CCC[C@H]1C(=O)N1CCC[C@H]1C(=O)N[C@@H](CO)C(=O)O)C(C)C
B2: the “hGLP1 pEC50 (cAMP)” value in test [1] is less than 9 pEC50. In addition, the “hGCGR pEC50 (cAMP)” value in test [2] was found to be 13.2 pEC50.

B3: Compound A9 (peptide)
peptide: YSHGTFTSDYSKYLD[Aib]KRAQEFV[Aib]WLEEEPSSGAPPPS-OH
modifications: N-terminus assumed
SMILES: CC(C)C[C@H](NC(=O)[C@H](Cc1ccc(O)cc1)NC(=O)[C@H](CCCCN)NC(=O)[C@H](CO)NC(=O)[C@H](Cc1ccc(O)cc1)NC(=O)[C@H](CC(=O)O)NC(=O)[C@H](CO)NC(=O)[C@@H](NC(=O)[C@H](Cc1ccccc1)NC(=O)[C@@H](NC(=O)CNC(=O)[C@H](Cc1c[nH]cn1)NC(=O)[C@H](CO)NC(=O)[C@@H](N)Cc1ccc(O)cc1)[C@@H](C)O)[C@@H](C)O)C(=O)N[C@@H](CC(=O)O)C(=O)NC(C)(C)C(=O)N[C@@H](CCCCN)C(=O)N[C@@H](CCCNC(=N)N)C(=O)N[C@@H](C)C(=O)N[C@@H](CCC(N)=O)C(=O)N[C@@H](CCC(=O)O)C(=O)N[C@@H](Cc1ccccc1)C(=O)N[C@H](C(=O)NC(C)(C)C(=O)N[C@@H](Cc1c[nH]c2ccccc12)C(=O)N[C@@H](CC(C)C)C(=O)N[C@@H](CCC(=O)O)C(=O)N[C@@H](CCC(=O)O)C(=O)N[C@@H](CCC(=O)O)C(=O)N1CCC[C@H]1C(=O)N[C@@H](CO)C(=O)N[C@@H](CO)C(=O)NCC(=O)N[C@@H](C)C(=O)N1CCC[C@H]1C(=O)N1CCC[C@H]1C(=O)N1CCC[C@H]1C(=O)N[C@@H](CO)C(=O)O)C(C)C
For the molecule B3, the “hGLP1 pEC50 (cAMP)” value in test [1] is less than 9 pEC50. Also, the “hGCGR pEC50 (cAMP)” value in test [2] turned out to be 13 pEC50.

B4: Compound A8 (peptide)
peptide: YSHGTFTSDYSKYLD[Aib]KRAQEFV[Aib]WLEDEPSSGAPPPS-NH2
modifications: N-terminus assumed
SMILES: CC(C)C[C@H](NC(=O)[C@H](Cc1ccc(O)cc1)NC(=O)[C@H](CCCCN)NC(=O)[C@H](CO)NC(=O)[C@H](Cc1ccc(O)cc1)NC(=O)[C@H](CC(=O)O)NC(=O)[C@H](CO)NC(=O)[C@@H](NC(=O)[C@H](Cc1ccccc1)NC(=O)[C@@H](NC(=O)CNC(=O)[C@H](Cc1c[nH]cn1)NC(=O)[C@H](CO)NC(=O)[C@@H](N)Cc1ccc(O)cc1)[C@@H](C)O)[C@@H](C)O)C(=O)N[C@@H](CC(=O)O)C(=O)NC(C)(C)C(=O)N[C@@H](CCCCN)C(=O)N[C@@H](CCCNC(=N)N)C(=O)N[C@@H](C)C(=O)N[C@@H](CCC(N)=O)C(=O)N[C@@H](CCC(=O)O)C(=O)N[C@@H](Cc1ccccc1)C(=O)N[C@H](C(=O)NC(C)(C)C(=O)N[C@@H](Cc1c[nH]c2ccccc12)C(=O)N[C@@H](CC(C)C)C(=O)N[C@@H](CCC(=O)O)C(=O)N[C@@H](CC(=O)O)C(=O)N[C@@H](CCC(=O)O)C(=O)N1CCC[C@H]1C(=O)N[C@@H](CO)C(=O)N[C@@H](CO)C(=O)NCC(=O)N[C@@H](C)C(=O)N1CCC[C@H]1C(=O)N1CCC[C@H]1C(=O)N1CCC[C@H]1C(=O)N[C@@H](CO)C(N)=O)C(C)C
Consider B4, for which, in test [1], the “hGLP1 pEC50 (cAMP)” value was less than 9 pEC50. Further, the “hGCGR pEC50 (cAMP)” value in test [2] was 12.3 pEC50.

B5: Compound A11 (peptide)
peptide: YSHGTFTSDYSKYLD[Aib]KRAQEFV[Aib]WLEDEEEPSSGAPPPS-OH
modifications: N-terminus assumed
SMILES: CC(C)C[C@H](NC(=O)[C@H](Cc1ccc(O)cc1)NC(=O)[C@H](CCCCN)NC(=O)[C@H](CO)NC(=O)[C@H](Cc1ccc(O)cc1)NC(=O)[C@H](CC(=O)O)NC(=O)[C@H](CO)NC(=O)[C@@H](NC(=O)[C@H](Cc1ccccc1)NC(=O)[C@@H](NC(=O)CNC(=O)[C@H](Cc1c[nH]cn1)NC(=O)[C@H](CO)NC(=O)[C@@H](N)Cc1ccc(O)cc1)[C@@H](C)O)[C@@H](C)O)C(=O)N[C@@H](CC(=O)O)C(=O)NC(C)(C)C(=O)N[C@@H](CCCCN)C(=O)N[C@@H](CCCNC(=N)N)C(=O)N[C@@H](C)C(=O)N[C@@H](CCC(N)=O)C(=O)N[C@@H](CCC(=O)O)C(=O)N[C@@H](Cc1ccccc1)C(=O)N[C@H](C(=O)NC(C)(C)C(=O)N[C@@H](Cc1c[nH]c2ccccc12)C(=O)N[C@@H](CC(C)C)C(=O)N[C@@H](CCC(=O)O)C(=O)N[C@@H](CC(=O)O)C(=O)N[C@@H](CCC(=O)O)C(=O)N[C@@H](CCC(=O)O)C(=O)N[C@@H](CCC(=O)O)C(=O)N1CCC[C@H]1C(=O)N[C@@H](CO)C(=O)N[C@@H](CO)C(=O)NCC(=O)N[C@@H](C)C(=O)N1CCC[C@H]1C(=O)N1CCC[C@H]1C(=O)N1CCC[C@H]1C(=O)N[C@@H](CO)C(=O)O)C(C)C
Turning to B5, in test [1], the “hGLP1 pEC50 (cAMP)” value is less than 9 pEC50. The “hGCGR pEC50 (cAMP)” value in test [2] was 11.2 pEC50.

B6: Compound A10 (peptide)
peptide: YSHGTFTSDYSKYLD[Aib]KRAQEFV[Aib]WLEDEEPSSGAPPPS-OH
modifications: N-terminus assumed
SMILES: CC(C)C[C@H](NC(=O)[C@H](Cc1ccc(O)cc1)NC(=O)[C@H](CCCCN)NC(=O)[C@H](CO)NC(=O)[C@H](Cc1ccc(O)cc1)NC(=O)[C@H](CC(=O)O)NC(=O)[C@H](CO)NC(=O)[C@@H](NC(=O)[C@H](Cc1ccccc1)NC(=O)[C@@H](NC(=O)CNC(=O)[C@H](Cc1c[nH]cn1)NC(=O)[C@H](CO)NC(=O)[C@@H](N)Cc1ccc(O)cc1)[C@@H](C)O)[C@@H](C)O)C(=O)N[C@@H](CC(=O)O)C(=O)NC(C)(C)C(=O)N[C@@H](CCCCN)C(=O)N[C@@H](CCCNC(=N)N)C(=O)N[C@@H](C)C(=O)N[C@@H](CCC(N)=O)C(=O)N[C@@H](CCC(=O)O)C(=O)N[C@@H](Cc1ccccc1)C(=O)N[C@H](C(=O)NC(C)(C)C(=O)N[C@@H](Cc1c[nH]c2ccccc12)C(=O)N[C@@H](CC(C)C)C(=O)N[C@@H](CCC(=O)O)C(=O)N[C@@H](CC(=O)O)C(=O)N[C@@H](CCC(=O)O)C(=O)N[C@@H](CCC(=O)O)C(=O)N1CCC[C@H]1C(=O)N[C@@H](CO)C(=O)N[C@@H](CO)C(=O)NCC(=O)N[C@@H](C)C(=O)N1CCC[C@H]1C(=O)N1CCC[C@H]1C(=O)N1CCC[C@H]1C(=O)N[C@@H](CO)C(=O)O)C(C)C
Take B6: the “hGLP1 pEC50 (cAMP)” value in test [1] is less than 9 pEC50. Moreover, the “hGCGR pEC50 (cAMP)” value in test [2] was determined as 11.3 pEC50.

B7: Compound A13 (peptide)
peptide: YSHGTFTSDYSKYLD[Aib]KRAQEFV[Aib]WLEDESGAPPPS-OH
modifications: N-terminus assumed
SMILES: CC(C)C[C@H](NC(=O)[C@H](Cc1ccc(O)cc1)NC(=O)[C@H](CCCCN)NC(=O)[C@H](CO)NC(=O)[C@H](Cc1ccc(O)cc1)NC(=O)[C@H](CC(=O)O)NC(=O)[C@H](CO)NC(=O)[C@@H](NC(=O)[C@H](Cc1ccccc1)NC(=O)[C@@H](NC(=O)CNC(=O)[C@H](Cc1c[nH]cn1)NC(=O)[C@H](CO)NC(=O)[C@@H](N)Cc1ccc(O)cc1)[C@@H](C)O)[C@@H](C)O)C(=O)N[C@@H](CC(=O)O)C(=O)NC(C)(C)C(=O)N[C@@H](CCCCN)C(=O)N[C@@H](CCCNC(=N)N)C(=O)N[C@@H](C)C(=O)N[C@@H](CCC(N)=O)C(=O)N[C@@H](CCC(=O)O)C(=O)N[C@@H](Cc1ccccc1)C(=O)N[C@H](C(=O)NC(C)(C)C(=O)N[C@@H](Cc1c[nH]c2ccccc12)C(=O)N[C@@H](CC(C)C)C(=O)N[C@@H](CCC(=O)O)C(=O)N[C@@H](CC(=O)O)C(=O)N[C@@H](CCC(=O)O)C(=O)N[C@@H](CO)C(=O)NCC(=O)N[C@@H](C)C(=O)N1CCC[C@H]1C(=O)N1CCC[C@H]1C(=O)N1CCC[C@H]1C(=O)N[C@@H](CO)C(=O)O)C(C)C
Take B7: the “hGLP1 pEC50 (cAMP)” value in test [1] was less than 9 pEC50. In addition, the “hGCGR pEC50 (cAMP)” value in test [2] turned out to be 12.3 pEC50.
